Results reported in the RNAGym collection of RNA variant scans (doi:10.1021/acssynbio.7b00057).

B1: Pistol ribozyme (parent)
chain: GGGUCGUUGUUCCAUAAUCGCGUGGAUAUGGCACGCAAGUUUCUACCGGGCACCGUAAAUGUCCGACUGGAGCCGUUCGGGCGGCUAUAAACAGACCUCAGGCCCGAAGCGUGGCGGCACCUGCCGCCGGUGGUAAAAAAGAUCGGAAGAGCACACGUCU

Variants of: B1
Assay: aptazyme ON/OFF ratio, guanine; higher = stronger switching; co-transcriptional cleavage with and without guanine

Variant | aptazyme ON/OFF ratio
GGGUCGACGUUACAUAAUCGCGUGGAUAUGGCACGCAAGUUUCUACCGGGCACCGUAAAUGUCCGACUGGAGCCGUUCGGGCGGCUAUAAACAGACCUCAGGCCCGAAGCGUGGCGGCACCUGCCGCCGGUGGUAAAAAAGAUCGGAAGAGCACACGUCU [U7A U8C C12A] | 1.42
GGGUCGACGUUGCAUAAUCGCGUGGAUAUGGCACGCAAGUUUCUACCGGGCACCGUAAAUGUCCGACUGGAGCCGUUCGGGCGGCUAUAAACAGACCUCAGGCCCGAAGCGUGGCGGCACCUGCCGCCGGUGGUAAAAAAGAUCGGAAGAGCACACGUCU [U7A U8C C12G] | 1.18
GGGUCGACGUUUCAUAAUCGCGUGGAUAUGGCACGCAAGUUUCUACCGGGCACCGUAAAUGUCCGACUGGAGCCGUUCGGGCGGCUAUAAACAGACCUCAGGCCCGAAGCGUGGCGGCACCUGCCGCCGGUGGUAAAAAAGAUCGGAAGAGCACACGUCU [U7A U8C C12U] | 1.49
GGGUCGAAGUCCUAUAAUCGCGUGGAUAUGGCACGCAAGUUUCUACCGGGCACCGUAAAUGUCCGACUGGAGCCGUUCGGGCGGCUAUAAACAGACCUCAGGCCCGAAGCGUGGCGGCACCUGCCGCCGGUGGUAAAAAAGAUCGGAAGAGCACACGUCU [U7A U8A U11C C13U] | 1.23
GGGUCGAAGUGCCAUAAUCGCGUGGAUAUGGCACGCAAGUUUCUACCGGGCACCGUAAAUGUCCGACUGGAGCCGUUCGGGCGGCUAUAAACAGACCUCAGGCCCGAAGCGUGGCGGCACCUGCCGCCGGUGGUAAAAAAGAUCGGAAGAGCACACGUCU [U7A U8A U11G] | 1.25
GGGUCGACAUUACAUAAUCGCGUGGAUAUGGCACGCAAGUUUCUACCGGGCACCGUAAAUGUCCGACUGGAGCCGUUCGGGCGGCUAUAAACAGACCUCAGGCCCGAAGCGUGGCGGCACCUGCCGCCGGUGGUAAAAAAGAUCGGAAGAGCACACGUCU [U7A U8C G9A C12A] | 1.22
GGGUCGACGUUGAAUAAUCGCGUGGAUAUGGCACGCAAGUUUCUACCGGGCACCGUAAAUGUCCGACUGGAGCCGUUCGGGCGGCUAUAAACAGACCUCAGGCCCGAAGCGUGGCGGCACCUGCCGCCGGUGGUAAAAAAGAUCGGAAGAGCACACGUCU [U7A U8C C12G C13A] | 1.18
GGGUCGACGUUGGAUAAUCGCGUGGAUAUGGCACGCAAGUUUCUACCGGGCACCGUAAAUGUCCGACUGGAGCCGUUCGGGCGGCUAUAAACAGACCUCAGGCCCGAAGCGUGGCGGCACCUGCCGCCGGUGGUAAAAAAGAUCGGAAGAGCACACGUCU [U7A U8C C12G C13G] | 1.19
GGGUCGACGUUGUAUAAUCGCGUGGAUAUGGCACGCAAGUUUCUACCGGGCACCGUAAAUGUCCGACUGGAGCCGUUCGGGCGGCUAUAAACAGACCUCAGGCCCGAAGCGUGGCGGCACCUGCCGCCGGUGGUAAAAAAGAUCGGAAGAGCACACGUCU [U7A U8C C12G C13U] | 1.35
GGGUCGACGUUUGAUAAUCGCGUGGAUAUGGCACGCAAGUUUCUACCGGGCACCGUAAAUGUCCGACUGGAGCCGUUCGGGCGGCUAUAAACAGACCUCAGGCCCGAAGCGUGGCGGCACCUGCCGCCGGUGGUAAAAAAGAUCGGAAGAGCACACGUCU [U7A U8C C12U C13G] | 1.27
GGGUCGACGUUUAAUAAUCGCGUGGAUAUGGCACGCAAGUUUCUACCGGGCACCGUAAAUGUCCGACUGGAGCCGUUCGGGCGGCUAUAAACAGACCUCAGGCCCGAAGCGUGGCGGCACCUGCCGCCGGUGGUAAAAAAGAUCGGAAGAGCACACGUCU [U7A U8C C12U C13A] | 1.3
GGGUCGACGUUUUAUAAUCGCGUGGAUAUGGCACGCAAGUUUCUACCGGGCACCGUAAAUGUCCGACUGGAGCCGUUCGGGCGGCUAUAAACAGACCUCAGGCCCGAAGCGUGGCGGCACCUGCCGCCGGUGGUAAAAAAGAUCGGAAGAGCACACGUCU [U7A U8C C12U C13U] | 1.27
GGGUCGACAUUCCAUAAUCGCGUGGAUAUGGCACGCAAGUUUCUACCGGGCACCGUAAAUGUCCGACUGGAGCCGUUCGGGCGGCUAUAAACAGACCUCAGGCCCGAAGCGUGGCGGCACCUGCCGCCGGUGGUAAAAAAGAUCGGAAGAGCACACGUCU [U7A U8C G9A] | 1.74
GGGUCGACAUUAAAUAAUCGCGUGGAUAUGGCACGCAAGUUUCUACCGGGCACCGUAAAUGUCCGACUGGAGCCGUUCGGGCGGCUAUAAACAGACCUCAGGCCCGAAGCGUGGCGGCACCUGCCGCCGGUGGUAAAAAAGAUCGGAAGAGCACACGUCU [U7A U8C G9A C12A C13A] | 1.18
GGGUCGAAGUGAGAUAAUCGCGUGGAUAUGGCACGCAAGUUUCUACCGGGCACCGUAAAUGUCCGACUGGAGCCGUUCGGGCGGCUAUAAACAGACCUCAGGCCCGAAGCGUGGCGGCACCUGCCGCCGGUGGUAAAAAAGAUCGGAAGAGCACACGUCU [U7A U8A U11G C12A C13G] | 1.11
GGGUCGAAGUGAAAUAAUCGCGUGGAUAUGGCACGCAAGUUUCUACCGGGCACCGUAAAUGUCCGACUGGAGCCGUUCGGGCGGCUAUAAACAGACCUCAGGCCCGAAGCGUGGCGGCACCUGCCGCCGGUGGUAAAAAAGAUCGGAAGAGCACACGUCU [U7A U8A U11G C12A C13A] | 1.15
GGGUCGAAGUGAUAUAAUCGCGUGGAUAUGGCACGCAAGUUUCUACCGGGCACCGUAAAUGUCCGACUGGAGCCGUUCGGGCGGCUAUAAACAGACCUCAGGCCCGAAGCGUGGCGGCACCUGCCGCCGGUGGUAAAAAAGAUCGGAAGAGCACACGUCU [U7A U8A U11G C12A C13U] | 1.46
GGGUCGACGUUAAAUAAUCGCGUGGAUAUGGCACGCAAGUUUCUACCGGGCACCGUAAAUGUCCGACUGGAGCCGUUCGGGCGGCUAUAAACAGACCUCAGGCCCGAAGCGUGGCGGCACCUGCCGCCGGUGGUAAAAAAGAUCGGAAGAGCACACGUCU [U7A U8C C12A C13A] | 1.28

Variant | aptazyme ON/OFF ratio
GGGUCGACGUUAUAUAAUCGCGUGGAUAUGGCACGCAAGUUUCUACCGGGCACCGUAAAUGUCCGACUGGAGCCGUUCGGGCGGCUAUAAACAGACCUCAGGCCCGAAGCGUGGCGGCACCUGCCGCCGGUGGUAAAAAAGAUCGGAAGAGCACACGUCU [U7A U8C C12A C13U] | 1.24
GGGUCGACGUUAGAUAAUCGCGUGGAUAUGGCACGCAAGUUUCUACCGGGCACCGUAAAUGUCCGACUGGAGCCGUUCGGGCGGCUAUAAACAGACCUCAGGCCCGAAGCGUGGCGGCACCUGCCGCCGGUGGUAAAAAAGAUCGGAAGAGCACACGUCU [U7A U8C C12A C13G] | 1.11
GGGUCGAAGUGUCAUAAUCGCGUGGAUAUGGCACGCAAGUUUCUACCGGGCACCGUAAAUGUCCGACUGGAGCCGUUCGGGCGGCUAUAAACAGACCUCAGGCCCGAAGCGUGGCGGCACCUGCCGCCGGUGGUAAAAAAGAUCGGAAGAGCACACGUCU [U7A U8A U11G C12U] | 1.27
GGGUCGAAGUGGCAUAAUCGCGUGGAUAUGGCACGCAAGUUUCUACCGGGCACCGUAAAUGUCCGACUGGAGCCGUUCGGGCGGCUAUAAACAGACCUCAGGCCCGAAGCGUGGCGGCACCUGCCGCCGGUGGUAAAAAAGAUCGGAAGAGCACACGUCU [U7A U8A U11G C12G] | 1.27
GGGUCGAAGUGACAUAAUCGCGUGGAUAUGGCACGCAAGUUUCUACCGGGCACCGUAAAUGUCCGACUGGAGCCGUUCGGGCGGCUAUAAACAGACCUCAGGCCCGAAGCGUGGCGGCACCUGCCGCCGGUGGUAAAAAAGAUCGGAAGAGCACACGUCU [U7A U8A U11G C12A] | 1.13
GGGUCGAAGUGGGAUAAUCGCGUGGAUAUGGCACGCAAGUUUCUACCGGGCACCGUAAAUGUCCGACUGGAGCCGUUCGGGCGGCUAUAAACAGACCUCAGGCCCGAAGCGUGGCGGCACCUGCCGCCGGUGGUAAAAAAGAUCGGAAGAGCACACGUCU [U7A U8A U11G C12G C13G] | 1.24
GGGUCGAAGUGGUAUAAUCGCGUGGAUAUGGCACGCAAGUUUCUACCGGGCACCGUAAAUGUCCGACUGGAGCCGUUCGGGCGGCUAUAAACAGACCUCAGGCCCGAAGCGUGGCGGCACCUGCCGCCGGUGGUAAAAAAGAUCGGAAGAGCACACGUCU [U7A U8A U11G C12G C13U] | 1.46
GGGUCGAAGUGGAAUAAUCGCGUGGAUAUGGCACGCAAGUUUCUACCGGGCACCGUAAAUGUCCGACUGGAGCCGUUCGGGCGGCUAUAAACAGACCUCAGGCCCGAAGCGUGGCGGCACCUGCCGCCGGUGGUAAAAAAGAUCGGAAGAGCACACGUCU [U7A U8A U11G C12G C13A] | 1.1
GGGUCGAAGUGUUAUAAUCGCGUGGAUAUGGCACGCAAGUUUCUACCGGGCACCGUAAAUGUCCGACUGGAGCCGUUCGGGCGGCUAUAAACAGACCUCAGGCCCGAAGCGUGGCGGCACCUGCCGCCGGUGGUAAAAAAGAUCGGAAGAGCACACGUCU [U7A U8A U11G C12U C13U] | 1.35
GGGUCGAAGUGUAAUAAUCGCGUGGAUAUGGCACGCAAGUUUCUACCGGGCACCGUAAAUGUCCGACUGGAGCCGUUCGGGCGGCUAUAAACAGACCUCAGGCCCGAAGCGUGGCGGCACCUGCCGCCGGUGGUAAAAAAGAUCGGAAGAGCACACGUCU [U7A U8A U11G C12U C13A] | 1.2
GGGUCGAAGUGUGAUAAUCGCGUGGAUAUGGCACGCAAGUUUCUACCGGGCACCGUAAAUGUCCGACUGGAGCCGUUCGGGCGGCUAUAAACAGACCUCAGGCCCGAAGCGUGGCGGCACCUGCCGCCGGUGGUAAAAAAGAUCGGAAGAGCACACGUCU [U7A U8A U11G C12U C13G] | 1.25
GGGUCGACGUUCGAUAAUCGCGUGGAUAUGGCACGCAAGUUUCUACCGGGCACCGUAAAUGUCCGACUGGAGCCGUUCGGGCGGCUAUAAACAGACCUCAGGCCCGAAGCGUGGCGGCACCUGCCGCCGGUGGUAAAAAAGAUCGGAAGAGCACACGUCU [U7A U8C C13G] | 1.16
GGGUCGACGUUCAAUAAUCGCGUGGAUAUGGCACGCAAGUUUCUACCGGGCACCGUAAAUGUCCGACUGGAGCCGUUCGGGCGGCUAUAAACAGACCUCAGGCCCGAAGCGUGGCGGCACCUGCCGCCGGUGGUAAAAAAGAUCGGAAGAGCACACGUCU [U7A U8C C13A] | 1.26
GGGUCGACGUUCUAUAAUCGCGUGGAUAUGGCACGCAAGUUUCUACCGGGCACCGUAAAUGUCCGACUGGAGCCGUUCGGGCGGCUAUAAACAGACCUCAGGCCCGAAGCGUGGCGGCACCUGCCGCCGGUGGUAAAAAAGAUCGGAAGAGCACACGUCU [U7A U8C C13U] | 1.51
GGGUCGACGUUCCAUAAUCGCGUGGAUAUGGCACGCAAGUUUCUACCGGGCACCGUAAAUGUCCGACUGGAGCCGUUCGGGCGGCUAUAAACAGACCUCAGGCCCGAAGCGUGGCGGCACCUGCCGCCGGUGGUAAAAAAGAUCGGAAGAGCACACGUCU [U7A U8C] | 1.98
GGGUCGAAGUGCGAUAAUCGCGUGGAUAUGGCACGCAAGUUUCUACCGGGCACCGUAAAUGUCCGACUGGAGCCGUUCGGGCGGCUAUAAACAGACCUCAGGCCCGAAGCGUGGCGGCACCUGCCGCCGGUGGUAAAAAAGAUCGGAAGAGCACACGUCU [U7A U8A U11G C13G] | 1.1
GGGUCGAAGUGCAAUAAUCGCGUGGAUAUGGCACGCAAGUUUCUACCGGGCACCGUAAAUGUCCGACUGGAGCCGUUCGGGCGGCUAUAAACAGACCUCAGGCCCGAAGCGUGGCGGCACCUGCCGCCGGUGGUAAAAAAGAUCGGAAGAGCACACGUCU [U7A U8A U11G C13A] | 1.16
GGGUCGAAGUGCUAUAAUCGCGUGGAUAUGGCACGCAAGUUUCUACCGGGCACCGUAAAUGUCCGACUGGAGCCGUUCGGGCGGCUAUAAACAGACCUCAGGCCCGAAGCGUGGCGGCACCUGCCGCCGGUGGUAAAAAAGAUCGGAAGAGCACACGUCU [U7A U8A U11G C13U] | 1.2
